The record followed here is publication PMC8546539, “CK2 Phosphorylation of Human Papillomavirus 16 E2 on Serine 23 Promotes Interaction with TopBP1 and Is Critical for E2 Interaction with Mitotic Chromatin and the Viral Life Cycle” (mBio, 2021).

For experiment [1], the target named is TopBP1 (UniProt Q92547). Description: TopBP1 antibody co-IP, E2 Western blot. The conditions noted are these: reference: E2-WT; sites S23. (Immunoblotting shows a protein as a band on a membrane.)
The target in experiment [2] is TopBP1 (UniProt Q92547). Briefly: TopBP1 antibody co-IP, E2 Western blot. The conditions noted are these: reference: E2-WT; sites S23. The source holds these as a separate data set.
Experiment [3] has as its target T1, GST TopBP1 (aa 32 to 1522) His (UniProt Q92547 32-1522).
T1 construct: also called GST-tagged TopBP1; recombinant GST-TopBP1 (full length); source: E. coli BL21(DE3), purified (Glutathione Sepharose 4B, size exclusion chromatography)
Briefly: pull-down. The conditions noted are these: both partners purified.

As to HPV16 E2 (from UniProt P03120) E2-S23A, the “binding against the reference” value with TopBP1 [1] and in the experiment with TopBP1 [2] was “weaker” in each case.

B1: His-E2-S23D (amino acids 1 to 200) (domain or fragment)
chain: METLCQRLNVCQDKILTHYENDDTDLRDHIDYWKHMRLECAIYYKAREMGFKHINHQVVPTLAVSKNKALQAIELQLTLETIYNSQYSNEKWTLQDVSLEVYLTAPTGCIKKHGYTVEVQFDGDICNTMHYTNWTHIYICEEASVTVVEGQVDYYGLYYVHEGIRTYFVQFKDDAEKYSKNKVWEVHAGGQVILCPTSVF
notes: source: E. coli BL21(DE3), purified (Ni-NTA agarose, size exclusion chromatography)
Consider B1, for which the binding result in experiment [3] is reported as “binds”.
